Experimental data from patent publication US9260505B2, “Methods for screening for binding partners of G-protein coupled receptors” (Heptares Therapeutics Limited, priority 2007, dated 2016).
Numbering of substitutions follows the chain as printed. Names may count otherwise. “And” between values parts separate entries of the source, which are not always exact repeats. Identical values can stand only once. Like-named read-outs stand apart in the source and are kept apart here.

How the values were obtained:
A2aR mutant Rag 23 = conditions: detergent-solubilised
[1] = Thermostability of detergent-solubilised βAR34-424 and mutants ([3H]-DHA binding after heating 30 min)
Protocol: Binding assays were performed using [^3H]-dihydroalprenolol (DHA) as radioligand as described under “Methods”. Samples were heated for 30 minutes at different temperatures before the assay. […] Data points are from duplicates of one single experiment.
Single point binding assays contained 20 mM Tris pH 8, 0.4 M NaCl, 1 mM EDTA, 0.1% DDM (or corresponding detergent) with 50 nM [^3H]-DHA and 20-100 μg membrane protein in a final volume of 120 μl; equilibration was for 1 h at 4° C. Thermostability was assessed by incubating the binding assay mix, with or without [^3H]-DHA at the specified temperature for 30 minutes; reactions were placed on ice and [^3H]-DHA added as necessary and equilibrated for a further hour. Receptor-bound and free radioligand were separated by gel filtration as described previously[18]. […] Radioactivity was counted on a Beckman LS6000 liquid scintillation counter and data were analyzed by nonlinear regression using Prism software (GraphPad).

βAR-m23 = βAR-m23 (Meleagris gallopavo, UniProt P07700, A282L/C116L/F327A/F338M/M90V/R68S/Y227A); type: binding, turkey
[2] = Thermostability of β adrenergic receptors expressed in mammalian cells, minus-ligand format (FIG. 26); conditions: 0.1% dodecylmaltoside, apo-state heated, 3H-DHA
Excerpt: The resulting mutants were transiently expressed in mammalian cells, solubilised in 0.1% dodecylmaltoside and assayed for thermostability in the minus-ligand format (heating the apo-state, quenching on ice, adding 3H-DHA).

[3] = Thermostability of solubilised adenosine A2a receptor and mutants; type: physicochemical; conditions: for Tm + agonist / Tm + antagonist / Tm − agonist / Tm − antagonist: 1% DDM, no glycerol; for Tm + agonist: agonist-occupied; for Tm + antagonist: antagonist-occupied; for Tm − agonist / Tm − antagonist: apo-state; for Tm: ZM241385 bound
Protocol: • 1. 315 site-directed mutants made between residues 2-316 of A2aR. • 2. All of these mutants have been assayed for thermostability using an assay measuring agonist and antagonist binding after the heating step (Ligand(−) format as described in FIG. 12). • a. […] Mutations have been combined to generate mutants in a putative antagonist conformation. Wildtype A2aR has a Tm of 31° C. with ZM241385 bound.

[4] = Thermostability of neurotensin receptor and mutants (3H-neurotensin binding); type: physicochemical; conditions: neurotensin bound
Protocol: • 1. 340 site-directed mutants have been made between residues 61-400 of NTR. • 2. Initially, all of these mutants were assayed for thermostability using an assay measuring ^3H-neurotensin (agonist) binding after the heating step. […] Mutants tested for thermostability by heating in the absence of the agonist were re-tested using a slightly different assay where the mutants were heated in the presence of ^3H-neurotensin (Ligand(+) format in FIG. 12). […] All of these also have increased thermostability. • 5. Preferred combinations are • a. Nag7m F358A+A86L+I260A+F342A Tm 51° C. (neurotensin bound) • b. Nag7n F358A+H103A+I260A+F342A Tm 51° C. (neurotensin bound)

β1AR36-M23 = target: T1, β1AR36-M23 (Meleagris gallopavo, UniProt P07700, A282L/C116L/C358A/DEL244-271/DEL277-278/F327A/F338M/M90V/R68S/Y227A); experiment: biochemical; type: binding, turkey; conditions: for kd: 10° C., footnote 1 averaged from two b1AR surfaces, footnote 2 preliminary results
T1 construct: beta-36 construct (amino acid residues 34-367 of the turkey beta receptor containing the following changes); His6 (C); made in house; host or cells: insect cells, baculovirus (stated for the beta-36 construct in the crystallisation text)
Protocol: Binding studies were performed at 10° C. using a Biacore S51 optical biosensor equipped with a streptavidin-coated CM5 chip and equilibrated with running buffer (20 mM trisHCl, 150 mM NaCl, 1 mM EDTA, 1% DMSO, 0.1% decyl maltoside, pH 7.8).
Flow through of the compound allowed the on rate to be determined. Subsequent washing enabled determination of the off rate. These parameters could then be used to determine a kinetic affinity measurement (Kd).

[5] = apo-state heated 30 min, E. coli expressed, DDM-solubilised, mean ± S.E. from duplicates

T1 sequence (P07700 other isoform, or with tags, fused parts or gaps with the stated changes): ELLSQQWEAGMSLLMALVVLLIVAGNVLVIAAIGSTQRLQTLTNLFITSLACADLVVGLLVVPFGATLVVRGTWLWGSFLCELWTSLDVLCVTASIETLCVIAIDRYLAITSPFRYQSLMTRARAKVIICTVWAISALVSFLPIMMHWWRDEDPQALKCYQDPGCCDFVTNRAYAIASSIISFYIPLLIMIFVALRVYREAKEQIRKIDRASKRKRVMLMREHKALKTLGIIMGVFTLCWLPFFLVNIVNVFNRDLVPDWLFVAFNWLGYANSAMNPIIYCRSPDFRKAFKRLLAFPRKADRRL
βAR-m23, sequence (P07700 34-424 R68S/M90V/C116L/Y227A/A282L/F327A/F338M): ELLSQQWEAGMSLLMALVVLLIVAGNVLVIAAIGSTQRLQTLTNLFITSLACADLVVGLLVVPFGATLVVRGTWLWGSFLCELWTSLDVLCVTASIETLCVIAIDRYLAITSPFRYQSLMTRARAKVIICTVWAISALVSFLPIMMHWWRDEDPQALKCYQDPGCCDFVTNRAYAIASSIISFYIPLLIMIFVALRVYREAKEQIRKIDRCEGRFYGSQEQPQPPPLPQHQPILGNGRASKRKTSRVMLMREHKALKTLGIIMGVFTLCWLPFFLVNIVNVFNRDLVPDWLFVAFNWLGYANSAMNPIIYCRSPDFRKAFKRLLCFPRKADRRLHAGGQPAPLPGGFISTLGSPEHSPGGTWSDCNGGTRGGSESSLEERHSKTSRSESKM

CCNC(=O)[C@H]1O[C@@H](n2cnc3c(N)ncnc32)[C@H](O)[C@@H]1O [[^3H]NECA]
Kd (A2aR mutant Rag 23): 21 ± 1 nM

m10-4: βAR34-424 mutant R68S, M90V, V230A, A334L
Tm [1, 5]: 46.9 ± 1.0 °C

m23: βAR34-424 mutant R68S, M90V, Y227A, A282L, F327A, F338M
Tm ([1]; Ni-NTA partially purified, in DDM): 52 °C | Tm ([1]; Ni-NTA partially purified, in DM): 48 °C | Tm ([1]; Ni-NTA partially purified, in LDAO): 23 °C | Tm ([1]; Ni-NTA partially purified, in NG): 25 °C | Tm ([1]; Ni-NTA partially purified, in OG): 17 °C | Tm with antagonist bound ([1]; [3H]-DHA bound during heating): 55 °C | increase in Tm with bound antagonist ([1]; antagonist bound versus without antagonist): 2 °C | Tm [1, 5]: 52.8 °C and 52.8 ± 1.4 °C

1-[4,6-propyl-^3H]-dihydroalprenolol [[^3H]-dihydroalprenolol]
Kd (βAR-m23; membranes, n=2): 6.5 ± 0.2 nM | Kd (βAR-m23; semipurified receptor): 12.5 nM

m6-10: βAR34-424 mutant R68S, Y227A, A282L, A334L
Tm [1, 5]: 47.4 ± 1.1 °C

m7-1: βAR34-424 mutant M90V, A282L, F338M
Tm [1, 5]: 43.0 ± 0.8 °C

human β1: human β1 adrenergic receptor
apparent Tm [2]: ~12 °C

turkey β1: turkey β1 adrenergic receptor transiently expressed in mammalian cells
apparent Tm [2]: 23 °C

m6-4: βAR34-424 mutant R68S, Y227A, A234L, A282L
Tm [1, 5]: 41.6 ± 0.1 °C

m6-9: βAR34-424 mutant R68S, Y227A, A234L, A282L, A334L
Tm [1, 5]: 43.7 ± 0.4 °C

m20: βAR34-424 mutant R68S, M90V, F327A, A334L
Tm [1, 5]: 48.4 ± 0.7 °C

m6-5: βAR34-424 mutant R68S, A234L, A282L, A334L
Tm [1, 5]: 41.9 ± 0.5 °C

wt: wild-type human adenosine A2a receptor [reference compound]
Tm, Agonist-binding ([3]; 0.003% LDAO): 28 °C | Tm, Antagonist-binding ([3]; 0.003% LDAO): 32 °C | Tm, Agonist-binding ([3]; 0.006% FC12): 37 °C | Tm, Antagonist-binding ([3]; 0.006% FC12): 43 °C | Tm, Agonist-binding ([3]; 0.01% DDM): 27 °C | Tm, Antagonist-binding ([3]; 0.01% DDM): 25 °C | Tm, Agonist-binding ([3]; 0.1% DM): 23 °C | Tm, Antagonist-binding ([3]; 0.1% DM): 10 °C | Tm, Agonist-binding ([3]; 0.3% NM): 22 °C | Tm, Antagonist-binding ([3]; 0.3% NM): <4 °C | Tm, Agonist-binding ([3]; 0.6% OG): <9 °C | Tm + agonist [3]: 29 °C | Tm + antagonist [3]: 32 °C | Tm − agonist [3]: 21 °C | Tm − antagonist [3]: 31 °C | Tm [3]: 31 °C

Wildtype NTR: wild-type neurotensin receptor [reference compound]
Tm [4]: 35 °C

C=CCc1ccccc1OC[C@@H](O)CNC(C)C [alprenolol]
Kd (β1AR36-M23): 44 ± 1 nM | kd (β1AR36-M23): (6.3 ± 0.1) × 10^−3 s^−1

OCc1cc(C(O)CNCCCCCCOCCCCc2ccccc2)ccc1O (centres unmarked) [Salmeterol]
Kd (β1AR36-M23): 2500 ± 300 nM | kd (β1AR36-M23): (9.5 ± 0.4) × 10^−2 s^−1 | binding strength compared with alprenolol or propranolol (β1AR36-M23; in words): bound the receptor much more weakly | dissociation rate compared with the other compounds (β1AR36-M23; in words): dissociated much faster

m7-7: βAR34-424 mutant M90V, Y227A, F338M
Tm [1, 5]: 45.2 ± 2.0 °C

B1: Rant17: A2aR mutant A54L + K122A + L235A (protein, UniProt P29274 1-412, looked up, variant A54L K122A L235A)
Adenosine receptor A2a: MPIMGSSVYITVELAIAVLAILGNVLVCWAVWLNSNLQNVTNYFVVSLAAADILVGVLAIPFAITISTGFCAACHGCLFIACFVLVLTQSSIFSLLAIAIDRYIAIRIPLRYNGLVTGTRAAGIIAICWVLSFAIGLTPMLGWNNCGQPKEGKNHSQGCGEGQVACLFEDVVPMNYMVYFNFFACVLVPLLLMLGVYLRIFLAARRQLKQMESQPLPGERARSTLQKEVHAAKSAAIIVGLFALCWLPLHIINCFTFFCPDCSHAPLWLMYLAIVLSHTNSVVNPFIYAYRIREFRQTFRKIIRSHVLRQQEPFKAAGTSARVLAAHGSDGEQVSLRLNGHPPGVWANGSAPHPERRPNGYALGLVSGGSAQESQGNTGLPDVELLSHELKGVCPEPPGLDDPLAQDGAGVS
Tm [3]: Tm 48 °C (ZM241385 bound)

B2: Rant19: A2aR mutant A54L, T88A, V239A + A204L (protein, UniProt P29274 1-412, looked up, variant A54L T88A V239A A204L)
Adenosine receptor A2a: B1 Adenosine receptor A2a with T88A, A122K, A204L, A235L, V239A
Tm [3]: Tm 47 °C (ZM241385 bound)

B3: Rag 1: A2aR mutant A184L/R199A/L272A (protein, UniProt P29274 1-412, looked up, variant A184L R199A L272A)
Adenosine receptor A2a: B1 Adenosine receptor A2a with L54A, A122K, A184L, R199A, A235L, L272A
Tm + agonist [3]: 34 °C | Tm − agonist [3]: 26 °C

B4: Rant 5: A2aR mutant A54L/T88A/V239A (protein, UniProt P29274 1-412, looked up, variant A54L T88A V239A)
Adenosine receptor A2a: B1 Adenosine receptor A2a with T88A, A122K, A235L, V239A
Tm + antagonist [3]: 46 °C | Tm − antagonist [3]: 42 °C

B5: Rant21: A2aR mutant A54L, T88A, V239A + K122A (protein, UniProt P29274 1-412, looked up, variant A54L T88A V239A K122A)
Adenosine receptor A2a: B1 Adenosine receptor A2a with T88A, A235L, V239A
Tm, Antagonist-binding ([3]; 0.003% LDAO): 42 °C | Tm, Antagonist-binding ([3]; 0.006% FC12): 49 °C | Tm, Antagonist-binding ([3]; 0.01% DDM): 39 °C | Tm, Antagonist-binding ([3]; 0.1% DM): 28 °C | Tm, Antagonist-binding ([3]; 0.3% NG): 22 °C | Tm, Antagonist-binding ([3]; 0.3% NM): 25 °C | Tm, Antagonist-binding ([3]; 0.6% OG): 23 °C | Tm + antagonist [3]: 49 °C | Tm − antagonist [3]: 41 °C | Tm [3]: Tm 49 °C (ZM241385 bound)

B6: Nag7m: rat neurotensin receptor mutant F358A+A86L+I260A+F342A (protein, UniProt P20789 1-424, looked up, variant F358A A86L I260A F342A)
Neurotensin receptor type 1: MHLNSSVPQGTPGEPDAQPFSGPQSEMEATFLALSLSNGSGNTSESDTAGPNSDLDVNTDIYSKVLVTAIYLALFVVGTVGNSVTLFTLARKKSLQSLQSTVHYHLGSLALSDLLILLLAMPVELYNFIWVHHPWAFGDAGCRGYYFLRDACTYATALNVASLSVERYLAICHPFKAKTLMSRSRTKKFISAIWLASALLAIPMLFTMGLQNRSGDGTHPGGLVCTPIVDTATVKVVIQVNTFMSFLFPMLVISILNTVAANKLTVMVHQAAEQGRVCTVGTHNGLEHSTFNMTIEPGRVQALRHGVLVLRAVVIAFVVCWLPYHVRRLMFCYISDEQWTTALFDFYHYFYMLTNALAYVSSAINPILYNLVSANFRQVFLSTLACLCPGWRHRRKKRPTFSRKPNSMSSNHAFSTSATRETLY
Tm [4]: 51 °C

B7: Nag7n: rat neurotensin receptor mutant F358A+H103A+I260A+F342A (protein, UniProt P20789 1-424, looked up, variant F358A H103A I260A F342A)
Neurotensin receptor type 1: B6 Neurotensin receptor type 1 with L86A, H103A
Tm [4]: 51 °C
